Test results: patent US20210380703A1 (RIGEL PHARMACEUTICALS, published 2021)
Substitutions are numbered along the chain they refer to.

B1: 371_G01 (antibody, V domains shown)
VH: EVQLLESGGGLVQPGGSLRLSCAASGFTFSDYSMNWVRQAPGKGLEWVSNINYNGGYTSYADSVKGRFTISRDNSKNTLYLQMNSLRAEDTAVYYCARGATWHDTHLDYWGQGTLVTVSS
VL: DIQMTQSPSSLSASVGDRVTITCRASQSILTYLNWYQQKPGKAPKLLIYAATSLASGVPSRFSGSGSGTDFTLTISSLQPEDFATYYCQQSYDLPLTFGGGTKVEIK
notes: VH/VL only
B2: 374_A05 (antibody, V domains shown)
VH: B1 VH with S33G, S49A, T58K, S59G
VL: B1 VL with L30V, T31R, L47V, D93E
notes: VH/VL only
B3: 373_F07 (antibody, V domains shown)
VH: B1 VH with D31S, N50G, G55S, T58K
VL: B1 VL with T31S, D93E, L94T
notes: VH/VL only
B4: 373_B09 (antibody, V domains shown)
VH: B1 VH with S30D, D31S, N50G, T58K
VL: B1 VL with T31S, L47V, D93E, L94T
notes: VH/VL only
B5: 373_A06 (antibody, V domains shown)
VH: B1 VH with D31S, N50G, T58K
VL: not shown
notes: VH/VL only
B6: 372_E08 (antibody, V domains shown)
VH: B1 VH
VL: B1 VL with L30I, L54R, D93N
notes: VH/VL only
B7: 374_A04 (antibody, V domains shown)
VH: B1 VH with D31S, S49A, N50G
VL: B1 VL with L47V, L54R, L94T
notes: VH/VL only
B8: 374_C10 (antibody, V domains shown)
VH: B1 VH with D31S, N50S, T58K, S59G
VL: B1 VL with L30V, D93N, L94T
notes: VH/VL only
B9: 372_H11 (antibody, V domains shown)
VH: B1 VH with D31S, S33G, N35H, S49A, N50G
VL: B1 VL with T31S, L33V, L54R, D93E, L94N
notes: VH/VL only
B10: 372_F02 (antibody, V domains shown)
VH: B1 VH with D31S, S33G, N35H, S49A, N50S
VL: B1 VL with L47V, L54R, A55H
notes: VH/VL only
B11: 373_D06 (antibody, V domains shown)
VH: B1 VH with D31S, S49A, N50G
VL: B1 VL with L30V, L54R, L94T
notes: VH/VL only
B12: 371_H11 (antibody, V domains shown)
VH: B1 VH with D31S, N50G, T58K, S59G
VL: B1 VL with A51T, L54R, A55H, D93E, L94S
notes: VH/VL only
B13: 372_B09 (antibody, V domains shown)
VH: B1 VH with D31S, N50S, G55S
VL: B1 VL with L54R, D93E, L94T
notes: VH/VL only
B14: 373_G02 (antibody, V domains shown)
VH: B1 VH with D31S, N50G
VL: B1 VL with L30I, L54R, D93S, L94S
notes: VH/VL only

Columns and labels:
Human ACVR2A = biological target: T1, Human ACVR2A (human, UniProt P27037 20-135, limits assumed); test: ELISA
T1 construct: also called activin receptor, type II A
T1 sequence (P27037 20-135 limits assumed): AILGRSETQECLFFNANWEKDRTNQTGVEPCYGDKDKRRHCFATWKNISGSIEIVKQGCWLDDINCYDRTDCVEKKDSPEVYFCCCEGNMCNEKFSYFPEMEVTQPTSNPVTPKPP
Method in brief: (§1)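 mAb binding by ELISA; antigens: hu ACVR2A, mu ACVR2A; pos ctrl biotinylated goat anti-hu kappa LC; neg ctrl hu Fc.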

Mouse ACVR2A = Mouse ACVR2A (mouse, UniProt P27038 20-135, limits assumed); test: ELISA
Sequence of Mouse ACVR2A (P27038 20-135 limits assumed): as the sequence (P27037 20-135 limits assumed) above, with K20R, V73I counted along it
Method in brief: as §1

Goat anti-Human Kappa = biological target: T2, Goat anti-Human Kappa; test: ELISA; positive control
T2 construct: Positive control; also called biotinylated goat anti-human kappa light chain
Method in brief: as §1
Note: test concentration or dose not given here.

Binder | optical density (Human ACVR2A) | optical density (Mouse ACVR2A) | optical density (Goat anti-Human Kappa)
B1 | 2.01 OD | 2.24 OD | 1.79 OD
B2 | 3.6 OD | 3.6 OD | 2.92 OD
B3 | 3.61 OD | 3.62 OD | 3.13 OD
B4 | 3.6 OD | 3.62 OD | 3.24 OD
B5 | 3.64 OD | 3.62 OD | 3.07 OD
B6 | 2.56 OD | 2.82 OD | 3.51 OD
B7 | 3.65 OD | 3.68 OD | 2.99 OD
B8 | 3.57 OD | 3.67 OD | 3.08 OD
B9 | 2.62 OD | 2.86 OD | 3.65 OD
B10 | 3.01 OD | 3.09 OD | 3.69 OD
B11 | 3.63 OD | 3.57 OD | 3.21 OD
B12 | 2.89 OD | 3.12 OD | 3.6 OD
B13 | 3.11 OD | 3.01 OD | 3.5 OD
B14 | 3.59 OD | 3.56 OD | 3.22 OD
